# In US12371675B2, “Process and microorganism for synthesis of adipic acid from carboxylic acids” (THE GOVERNING COUNCIL OF THE UNIVERSITY OF TORONTO, priority 2015, dated 2025):
# B1: LMO2471: OYE protein from Listeria monocytogenes EGD-e (protein)
# chain: MSKLFSEYKLKDVTLKNRIVMSPMCMYSVENKDGIATDFHFAHYVSRAAGGTGLVILEATAVQEVGRISEFDLGLWNDEQVPALKKLVGGLHYHGAKAGIQLAHAGRKAVLPGEIVAPSAIAFDEKSDKPVELTKEAIKEVVADFKRAAYRAKEAGFDVIEIHAAHGYLIHQFLSPITNRREDNYGGPAGNRYKILSDIIKAVKEVWDGPIIVRVSATDYAHGGLQLEDHIPFAKWMKADGVELIDVSTGGLVNVAPPVFPGYQVPFADEIRRGAGIATGALGLITRGEQAEEILCNERADLIIVGRELLRNPYFAKDAAKQLGETIEAPKQYSRAWK
# B2: NE2398: OYE protein from Nifrosomonas europaea ATCC 19718 (protein)
# chain: MLFNPLQVGSLTLPNRILLAPLTRARADAGHMPNALMAEYYSQRATGGLLISECTMVAPGTSAFVNEPGIYNDAQIAAWRQVTDAVHAKGGRIFMQIWHAGRAAYPGAADGAPIVSSSATAIEGEIHTPQGKVPHAVPRPLTVDEIPGIVAAFAQGARNAIAAGFDGVEVHGANGYLIDQFLRDTPNQRTDAYGGSLENRARLLFEVLTAVTQAIGSERVGLRLSPLNSFNSMKDSDPLALIGFLADRLNAFKLAYLHVMRADFFGVQKADVMPVAREKYKGVLVGNMGYSADEAEAAIAEGRLDAVAFGTAFLANPDLPARIRAKAPLNAPDSNTFYAGGAKGYTDYPTLQLA
# B3: PA2932: OYE protein from Pseudomonas aeruginosa PAO1 (protein)
# chain: MSNLLLSPLAVGNLALRNRIVMAPMTRSRAQQPGDVPTALNALYYAQRAGAGLIVSEGTQISHLGQGYAYTPGIYSEAQLAGWRQVTEAVHAAGGLIAAQLWHVGRMSHRSLQAGGEAPIAPSPIQAKAQVFIADGQGGGSMAPADAPREMTLEDIRRVRDEFVRAARNALDAGFDLVELHGANGYLIDQFLASASNRRSDAYGGSLENRARFLLEIVDALVAAVGAERVGLRLSPWGTINDMHDDEPEAMTLYLAEALQRRGIAYLHLAEWEWSGGPAYPQGFRERLRERFRAPLIVCGNYDAERAEAILQAGLADAVAIGRPFIANPDLVERIRLGAPLAEANQARFYGGDAAGYTDYPTLGQSATA
# B4: PA4356: OYE protein from Pseudomonas aeruginosa PAO1 (protein)
# chain: MATLFDPIVLGDLELPNRIVMAPLTRCRADEGRVPNALMAEYYAQRADAGLILSEATAVTPMGVGYPDTPGIWSDDQVRGWSNVTKAVHAAGGRIFLQLWHVGRISDPLYLNGELPVAPSAIAAEGHVSLVRPKRPYVTPRALDTEEIADIVEAYRQGAERAKAAGFDGVEIHGANGYLLDQFLQDSTNKRTDRYGGSIENRARLLLEVTDAAISVWGAQRVGVHLAPRADSHDMGDSNRLETFSHVARELGKRGIAFICAREAQADDSIGVALKKAFGGPYIANEQFTLDSANAILAKGDADAVAFGVPFIANPDLVERLRQGAELNPPRPETFYTGGTEGYLDYPTLA
# B5: PP0911: OYE protein from Pseudomonas putida KT2440 (protein)
# chain: MTTLFDPIKLGDLQLPNRIIMAPLTRCRADEGRVPNALMAEYYVQRASAGLILSEATSVSPMGVGYPDTPGIWNDEQVRGWNNVTKAVHAAGGRIFLQLWHVGRISHPSYLNGELPVAPSAIQPKGHVSLVRPLSDYPTPRALETEEINDIVEAYRSGAENAKAAGFDGVEIHGANGYLLDQFLQSSTNQRTDRYGGSLENRARLLLEVTDAAIEVWGAQRVGVHLAPRADAHDMGDADRAETFTYVARELGKRGIAFICSREREADDSIGPLIKEAFGGPYIVNERFDKASANAALASGKADAVAFGVPFIANPDLPARLAADAPLNEAHPETFYGKGPVGYIDYPRL
# B6: PP1244: OYE protein from Pseudomonas putida KT2440 (protein)
# chain: MSALFEPYTLKDVTLRNRIAIPPMCQYMAEDGMINDWHHVHLAGLARGGAGLLVVEATAVAPEGRITPGCAGIWSDAHAQAFVPVVQAIKAAGSVPGIQIAHAGRKASANRPWEGDDHIAADDARGWETIAPSAIAFGAHLPKVPREMTLDDIARVKQDFVDAARRARDAGFEWIELHFAHGYLGQSFFSEHSNKRTDAYGGSFDNRSRFLLETLAAVREVWPENLPLTARFGVLEYDGRDEQTLEESIELARRFKAGGLDLLSVSVGFTIPDTNIPWGPAFMGPIAERVRREAKLPVTSAWGFGTPQLAEAALQANQLDLVSVGRAHLADPHWAYFAAKELGVEKASWTLPAPYAHWLERYR
# B7: PP1466: OYE protein from Pseudomonas putida KT2440 (protein)
# chain: MSLLLEPYTLRQLTLPNRIAVSPMCQYSAIDGLANDWHLVHLGCRAVGGAGLVISEAVAVTADGRITAEDLGLWNDDQIVPLQRITRFITAQGAVPGIQLAHAGRKASTYRPWLGKQGSVKLEDGGWQPVGPSKIAFDPQHTPPRELSKDEIQDVIDAFVASTERALKAGFKVVEIHAAHGYLLHQFLSPLSNQRRDEYGSCFENRIRLTLQVVEAVRKVWPAELPLFVRVSATDWVEDGWNPDETVELARRLRVLGVDLIDVSSGGTSVNAEIPTGPGYQTRFAERVRKEAEIATGTVGMITEPAQAEHILRTGQADVIFLARELLRDPYWPLHADDDLGGNKATWPAQYQRATSRANPIHESDLRD
# B8: PS1143: OYE protein from Pseudomonas syringae pv. tomato str. DC3000 (protein)
# chain: MSAAALFTPFRLGGLELSSRVVMAPMTRSFSPGHVPNSKVIEYYRRRAAAGVGLIITEGTTVNHPASNGYPNVPQFFGDAPLAGWKKVVDAVHAEGGKIAPQLWHVGAVRRLGTEPDGSIPAYGPMEKVKDGQVLVHGMSKQDIDEVVAAFAQAAADAKAIGMDGVEIHGAHGYLVDQFFWEGSNQRSDEYGGSLANRSRFAIELIKAVRAAVGPDYPIIFRFSQWKQQDYSARLVQTPEALGEFVQPLSDAGVDIFHCSTRRFWEPEFEGSELNLAGWTRKLTGKPTITVGSVGLDGEFLQFMVNTEKVAQPASLENLLERLGKDEFDLVAVGRALLVDPDWAVKVREGREQDILPFSREALTTLV
# B9: PS2358: OYE protein from Pseudomonas syringae pv. tomato str. DC3000 (protein)
# chain: MSALFEPFKLKDVTLRNRIAIPPMCQYSAIDGVVNDWHHVHLASMARGGAGLLVVEATAVAPEGRITPGCTGIWNDEQAQAFVPIVKAIKDAGCVPGIQIAHAGRKASANRPWEGDDHIVASDSRGWDTIAPSAIAFGANLPKVPRAMTLDDIARVRQNFVDAARRARDAGFEWIELHFAHGYLGQSFFSEHSNQRTDEYGGSFDNRSRFLLETLAAVREVWPENLPLTARFGVLEYDGRDEQTLTESIELARRFKAGGLDLLSVSVGFSTPDANIPWGPAFMGPIAERVRREAAIPVTSAWGFGEPKLAEEAVKSGQLDLVSIGRAHLADPHWAYFAAKELGVEKSAWTLPAPYAHWLERYR
# B10: PS4251: OYE protein from Pseudomonas syringae pv. tomato str. DC3000 (protein)
# chain: MTTIFDPITLGDLQLPNRIILAPLTRCRADEGRVPNALMSEYYVQRASAGLILTEATSVTPMGVGYPDTPGIWSNDQVRGWSNITQAVHNAGGRIVLQLWHVGRISHPSYLNGETPVAPSAIAAQGHVSLMRPITPLPTPRALELAEIGDIVEAYRVGAENAKAAGFDGVEVHGANGYLLEQFLLTGSNQRTDQYGGSLENRARLLLEVTDAVIDVWGAGRVGVHLSPRFDMHNMSDENRAETFSYVAKELGKRGIAFICARERDAEDSLGPQLKKDFGGVYIANEKFTKDSANAWLAEGKADAFAFGVPYIANPDLPERLASDAPLNEAHPETFYGKGPVGYIDYPRL
# B11: PSPH1060: OYE protein from Pseudomonas syringae pv. phaseolicola 1448A (protein)
# chain: MSVEALFTPFRLGSLELSSRVVMAPMTRSFSPGHVPNSKVIEYYRRRAAAGVGLIVTEGTTVNHKASNGYPNVPQFFGDAPLAGWRKVVEAVHAEGGKIVPQLWHVGAVRRPGTEPDGSVPAYGPMEKVKDGQVLVHGMSKQDIDDVVAAFAQAAVDAKAIGMDGVEIHGAHGYLIDQFFWEGSNQRSDEYGGSLAKRSRFAIELIKAVRVAVGADYPIIFRFSQWKQQDYTARLVQTPEALGEFLQPLADAGVDIFHCSTRRFWEPEFEGSDLNLAGWTRKLTGKPTITVGSVGLDGEFLQFMVNTDKVAQPASLENLLKRLGNDEFDLVAVGRALLVDPDWALKVREGREQDILPFSREALTTLV
# B12: PSPH1370: OYE protein from Pseudomonas syringae pv. phaseolicola 1448A (protein)
# chain: MSLLLEPYTLRQLTLRNRIAVSPMCQYSSVDGLANDWHLVHLGSRAVGGAGLVITEAMAVTPDGRITPEDLGLWNDEQIEPLQRITRFINAQGAVAGIQLAHAGRKASTWRPWLGKHGSISLNEGGWTPVGPSAIAFDPQHTAPVQLSETQIQELIKAFVDSARRALTAGFKVVEIHAAHGYLLHQFLSPLSNQRTDQYGGSFENRIRLTLQVTEAVRAVWPEELPLFVRVSATDWVEDGWNADETVELARRLKALGTDLIDVSSGGTSANAEIPVGPGYQTRFAERVRKESEIATGTVGMITDPAQAEHILRTGQADIILLARELLRDPYWPLRADEDLGGRLATWPAQYQRATHRDQPIHESDLRD
# Test: OYE hydrogenation activity screen, NADPH oxidation at 340 nm
# Assay type: biochemical
# Details: 1 mM substrate, 0.25 mM NADPH, 2.5 μg protein; cut-off 0.05 U/mg protein; ND = not detected
# Description: 25 putative OYE genes (Table 1) were cloned based on the Pfam domain of the FMN oxidoreductase family PF00724. Purified OYEs were screened for hydrogenation activity against acrolein, 2-cyclohexn-1-one, cis,cis-muconic acid, trans,trans-muconic acid, and 2-hexendioic acid. Substrate specificity was measured spectrophotometrically in 96-well plates by following incubation for 20 min at room temperature in the anaerobic chamber. Buffers and reagents were also degassed and sparged with Ar. Reaction mixtures contained potassium phosphate (50 mM and pH 7.0), NaCl (10 mM), NADPH (0.25 mM), various substrates (1 mM) and protein (2.5 μg) in a final volume of 200 μL. Enzyme reactions were monitored by following the decrease in absorbance at 340 nm (ε340 nm=6,200/M·cm) as a measure of the conversion of the cofactor NADPH to NADP+.
Molecule,Activity [U/mg protein] 2-cyclohexen-1-one,Activity [U/mg protein] acrolein
B1,0.08 U/mg protein,–
B2,0.19 U/mg protein,–
B3,13 U/mg protein,–
B4,.15 U/mg protein,–
B5,0.15 U/mg protein,–
B6,0.25 U/mg protein,0.06 U/mg protein
B7,0.14 U/mg protein,–
B8,0.18 U/mg protein,–
B9,0.13 U/mg protein,–
B10,0.09 U/mg protein,–
B11,0.14 U/mg protein,–
B12,0.18 U/mg protein,–
